One may read the stoichiometry N as a count of units in the complex or per binding partner. As usually defined, the Kd is the concentration at which binding is half-saturated.

The target in assay [1] is TollN6-VLR (hybrid of Toll residues 28-228 and variable lymphocyte receptor B.61 residues 133-201) (Drosophila melanogaster | hagfish) (UniProt P08953). The assay is described as follows: dynamic light scattering; 100 mM NaCl, 50 mM Tris-HCl pH 7.0, about 200 μg/ml; Z-average diameter 12.7 nm, polydispersion index about 0.1.
Assay [2] concerns the target Toll (Drosophila melanogaster) (UniProt P08953). Particulars: cited from earlier work.
In assay [3] the target is T1, full-length Toll ECD (extracellular domain of Drosophila melanogaster Toll) (Drosophila melanogaster, UniProt P08953 28-807).
T1 construct: Toll, Drosophila melanogaster, UniProt P08953, full-length extracellular domain; Also used as the target of the functional row on endogenous Toll of S2 cells (no molecule of its own was made for the whole receptor); also called full-length ECD; full-length ectodomain
T1 sequence (looked up): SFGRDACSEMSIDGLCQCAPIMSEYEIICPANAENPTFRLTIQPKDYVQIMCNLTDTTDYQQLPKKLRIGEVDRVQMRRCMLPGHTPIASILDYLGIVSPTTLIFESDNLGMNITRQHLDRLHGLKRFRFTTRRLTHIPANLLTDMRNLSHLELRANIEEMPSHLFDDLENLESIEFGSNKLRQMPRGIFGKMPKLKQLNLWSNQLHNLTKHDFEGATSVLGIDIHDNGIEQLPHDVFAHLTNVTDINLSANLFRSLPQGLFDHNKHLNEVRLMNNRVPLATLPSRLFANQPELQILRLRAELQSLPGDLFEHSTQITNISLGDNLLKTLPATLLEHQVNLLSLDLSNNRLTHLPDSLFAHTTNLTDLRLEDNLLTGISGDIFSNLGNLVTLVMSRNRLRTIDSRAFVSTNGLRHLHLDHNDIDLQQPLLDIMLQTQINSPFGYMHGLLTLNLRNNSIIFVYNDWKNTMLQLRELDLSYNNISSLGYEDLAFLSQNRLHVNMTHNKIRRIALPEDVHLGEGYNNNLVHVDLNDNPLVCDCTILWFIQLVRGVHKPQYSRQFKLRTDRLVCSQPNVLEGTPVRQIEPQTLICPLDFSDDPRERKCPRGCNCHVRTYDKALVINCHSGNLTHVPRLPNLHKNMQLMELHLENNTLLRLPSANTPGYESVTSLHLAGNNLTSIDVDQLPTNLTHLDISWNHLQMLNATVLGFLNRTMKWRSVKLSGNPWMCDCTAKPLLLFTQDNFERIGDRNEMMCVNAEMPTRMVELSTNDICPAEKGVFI
The assay is described as follows: SEC; data not shown; same preparation of C-106 with full-length Toll ECD, complexes elute as 280 kDa species. Particulars: both partners purified. Background: SEC sorts molecules by how far they enter the pores of the column.

Assay [4] deals with single and double mutations of Cys 34, Cys 43 and Cys 45 in the Toll-TLR4 chimera.
For assay [5], the target named is T2, TollN13-VLR (Toll N-terminal region up to LRR13 fused to VLR B.61 residues 133-201) (Drosophila melanogaster | hagfish, UniProt P08953 28-397; Q4G1L2 133-201).
T2 construct: Toll, Drosophila melanogaster, UniProt P08953, residues 28-397 (first 13 LRRs); cloned as residues 1-397 with its own signal peptide; the results say 'up to Leu 398 in LRR13'; variable lymphocyte receptor (VLR) B.61 of hagfish, residues Asn 133-Thr 201 (LRRCT cap); C-terminal limit of the Toll part is printed as 397 (methods, discussion) and as Leu 398 (results); also called larger Toll …
T2 chain (looked up): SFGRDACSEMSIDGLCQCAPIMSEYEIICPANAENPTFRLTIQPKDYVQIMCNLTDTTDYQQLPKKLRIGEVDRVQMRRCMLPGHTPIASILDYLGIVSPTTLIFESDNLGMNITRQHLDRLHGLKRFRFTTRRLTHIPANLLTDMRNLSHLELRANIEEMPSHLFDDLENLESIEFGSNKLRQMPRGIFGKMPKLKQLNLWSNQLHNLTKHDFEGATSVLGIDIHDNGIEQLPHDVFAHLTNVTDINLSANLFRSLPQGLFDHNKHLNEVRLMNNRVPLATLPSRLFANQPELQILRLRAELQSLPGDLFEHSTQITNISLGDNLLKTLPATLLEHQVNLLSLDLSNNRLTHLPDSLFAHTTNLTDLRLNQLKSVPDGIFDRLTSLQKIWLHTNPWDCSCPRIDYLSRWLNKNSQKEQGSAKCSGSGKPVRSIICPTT
The assay is described as follows: SEC; gel filtration of the Toll-VLR constructs alone and mixed with Spz C-106 (TollN6-VLR and C-106 in equimolar concentrations). Particulars: both partners purified.

“TollN6-VLR (hybrid of Toll residues 28-228 and variable lymphocyte receptor B.61 residues 133-201) (from UniProt P08953 28-228; Q4G1L2 133-201) (domain or fragment)” returned a stoichiometry N in assay [1] of 4.

For the molecule Toll (from UniProt P08953), in assay [2], the Kd was 2000 nM.

B1: Spätzle C-106 (C-terminal active fragment of 106 amino acids of processed Spätzle) (ligand, Drosophila melanogaster, UniProt P48607 221-326, looked up)
chain: VGGSDERFLCRSIRKLVYPKKGLRADDTWQLIVNNDEYKQAIQIEECEGADQPCDFAANFPQSYNPICKQHYTQQTLASIKSDGELDVVQNSFKIPSCCKCALKTG
notes: Spätzle (Spz), Drosophila melanogaster; also called cleaved Spz; source: baculovirus expression system, His-tagged Spätzle, purified
Take B1: the entries for the “stoichiometry N” value in assay [3] and in assay [5] were 1 ratio (2:2 as printed) and 1 ratio (1:1 as printed), respectively. Moreover, the NF-κB luciferase reporter in HEK293ET cells transfected with the Toll-TLR4 chimera, 24 hr after Spz stimulation at 10 nM; decrease of the signal against the wild-type chimera in assay [4] was 10 % decrease.

Values taken from PMC3542428, “Functional Insights from the Crystal Structure of the N-Terminal Domain of the Prototypical Toll Receptor” (Structure(London, England:1993), 2013).
